The text below walks through data of paper PMC12525626, “Phosphorylation as a candidate regulatory mechanism for effector recruitment to tankyrase” (Royal Society Open Science, 2025).

Square brackets hold non-standard residues; d marks the D form. 5(6)‑carboxyfluorescein = 5(6)-carboxyfluorescein; pS = N[C@@H](COP(=O)(O)O)C(=O)O; βAla = NCCC(=O)O

One may read the Kd as a measure of binding affinity in units of concentration. A higher Kd goes with weaker binding.

The target of assay [1] is T1, Human TNKS2 ARC4 (residues 488-649), wild type (human, UniProt Q9H2K2 488-649).
T1 construct: Tankyrase-2 (TNKS2), human, ankyrin repeat cluster 4, residues 488-649 of NM_025235.2, from the construct pETM30-2-TNKS2 ARC4; Monomeric by SEC-MALS; also called WT ARC4; tankyrase ankyrin repeat cluster 4; source: E. coli BL21-CodonPlus(DE3)-RIL, purified (HisTrap, TEV cleavage, second HisTrap, Superdex 75)
T1 sequence (looked up): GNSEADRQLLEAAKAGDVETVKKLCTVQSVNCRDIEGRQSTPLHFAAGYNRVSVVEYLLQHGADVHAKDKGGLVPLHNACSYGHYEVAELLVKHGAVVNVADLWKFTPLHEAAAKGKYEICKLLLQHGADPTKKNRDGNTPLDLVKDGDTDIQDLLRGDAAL
The assay is described as follows: crystal structure; TNKS2 ARC4 at 20 mg/ml with 1.5-fold molar excess of phospho-MDC1 peptide in 25 mM HEPES-NaOH pH 7.5, 100 mM NaCl, 2 mM TCEP; sitting drop, 4°C, 0.1 M Na cacodylate pH 6.5, 0.2 M Na acetate, 30% PEG 8000; molecular replacement. The settings on record: both partners purified.

Assay [2] deals with T1, Human TNKS2 ARC4 (residues 488-649), …. The assay is described as follows: fluorescence polarisation; carboxyfluorescein-labelled MDC1 TBM1 peptides with TNKS2 ARC4 protein (no-protein wells as baseline); POLARstar Omega plate reader; n = 3 separate experiments in technical duplicate; one-site total binding model, standard errors of the fit. The settings on record: both partners purified.

B1: MDC1 phospho-TBM1 peptide for co-crystallization (acetyl-943ERDTQRGEPEGG-pS-QDQ958-NH2) (peptide)
peptide: Ac-ERDTQRGEPEGG[pS]QDQ-NH2
SMILES: CC(=O)N[C@@H](CCC(=O)O)C(=O)N[C@@H](CCCNC(=N)N)C(=O)N[C@@H](CC(=O)O)C(=O)N[C@H](C(=O)N[C@@H](CCC(N)=O)C(=O)N[C@@H](CCCNC(=N)N)C(=O)NCC(=O)N[C@@H](CCC(=O)O)C(=O)N1CCC[C@H]1C(=O)N[C@@H](CCC(=O)O)C(=O)NCC(=O)NCC(=O)N[C@@H](COP(=O)(O)O)C(=O)N[C@@H](CCC(N)=O)C(=O)N[C@@H](CC(=O)O)C(=O)N[C@@H](CCC(N)=O)C(N)=O)[C@@H](C)O
notes: Mediator of DNA damage checkpoint protein 1 (MDC1), human, residues 943-958 around TBM1; also called phospho-MDC1 peptide; source: synthetic peptide (JPT, Berlin; HPLC-purified)
B1: in assay [1], the binding result was “binds”.

B2: MDC1 TBM1 peptide, non-phosphorylated (5(6)-carboxyfluorescein-βAla-QRGEPEGGSQ-NH2) (peptide)
peptide: {5(6)‑carboxyfluorescein-βAla}-QRGEPEGGSQ-NH2
notes: also called Non-phosphorylated TBM1; source: synthetic peptide (JPT, Berlin; crude stock, greater than 70% pure by HPLC)
For the molecule B2, the Kd in assay [2] was 4.5 µM.
